This is an account of results in the supplement of paper PMC12042874.

± gives the uncertainty stated by the source.

The nature of this data set: amyloid nucleation score (Sup35N fusion, yeast selection) (log enrichment); library NNK1; higher = more nucleation; inactive = no reads after selection. A digest of the protocol: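 The nucleation score is a DiMSum log enrichment of output over input reads, centred on the mode score of non-aggregating sequences. Sequences under 100 input reads were excluded, and reads came from Illumina sequencing of plasmid inserts. Psi-negative yeast expressing Sup35N fused to peptides of 20 random codons were induced with 100 μM copper sulfate for 24 hours and grown 7 days at 30°C on medium lacking adenine and uracil. Random libraries had three technical output replicates.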
On to TFSDFIQKGWRFIFKYPFRC, for which the amyloid nucleation score was determined as 0.686 ± 0.35.

SVVCVVSCYKIGAWLRAGG gave an amyloid nucleation score of 0.648 ± 0.52.

Substance TEIILYSILLSMYDLMFVVI displayed an amyloid nucleation score of 0.268 ± 1.4.

QAKPIIGRRTPLNDFNSPLY gave an amyloid nucleation score of 0.15 ± 0.37.

In turn, LFMLSSVGASMYFMG registered an amyloid nucleation score of 1.69 ± 0.19.

The substance ARLDRSFR registered an amyloid nucleation score of 0.451 ± 0.55.

The substance GMAWSRSLRVGHSGIMGRAV gave an amyloid nucleation score of 0.189 ± 0.22.

Regarding TVLGTSQGSCGWSNPSRNAR, the amyloid nucleation score was -0.455 ± 1.7.

TYRLIRSFC yielded an amyloid nucleation score of 0.368 ± 0.4.

With LVVQLYS, the amyloid nucleation score was -0.336 ± 0.62.

In turn, NNSKFMWQLSNWSWYTWHYI gave an amyloid nucleation score of -0.392 ± 0.83.

On to LFWWKE, for which the amyloid nucleation score was -0.292 ± 0.44.

In turn, AMNFWRKILIFSELVYG gave an amyloid nucleation score of 2.19 ± 0.5.

Take MLRTMG: the amyloid nucleation score worked out at 0.746 ± 0.5.

As to PPTGTLSRHVRSSVQGMGVA, the amyloid nucleation score entry was “inactive”.

VTRYTLVYFPLSLIRSTPAN: the amyloid nucleation score was determined as 0.62 ± 0.36.

Turning to LQTLGNWLHFKYAYWLLSNL, the amyloid nucleation score was -0.55 ± 0.72.

In turn, NMQLAPTGPNTVPISYDLFP came in with an amyloid nucleation score of -1.46 ± 2.4.

For VCNIS, the amyloid nucleation score is 0.985 ± 0.42.

Take SSRFDSLFVNNIMIFWVSKF: the amyloid nucleation score came out at 5.015 ± 0.048.

The substance WHYNMLYCLLRRSRLCWNIV returned an amyloid nucleation score of -0.403 ± 0.48.

SDEGN yielded an amyloid nucleation score of 1.55 ± 0.53.

On to DSEKGSVLYLVMRGMNCVSI, for which the amyloid nucleation score came to 4.69 ± 0.052.

QAFFVFC: the amyloid nucleation score amounted to 1.3 ± 0.36.

The substance SLNRWGVFLCEVALRLADGR had an amyloid nucleation score of 0.542 ± 0.85.

Substance IPRGCRFKSRVTVKINSGAG displayed an amyloid nucleation score of 1.37 ± 0.9.

AIAIPDRCLFYATRFSCDSR: the amyloid nucleation score result is “inactive”.

With IVFRLS, the amyloid nucleation score is 0.185 ± 0.38.

Substance VMRPFWMMMFYFYVEPEALS came in with an amyloid nucleation score of -0.584 ± 0.95.

Consider KNYDGCHMSYVGSRGWITSL, for which the amyloid nucleation score was 0.215 ± 1.4.

SNKTSKDGCEFQVVQLVQRV had an amyloid nucleation score of -0.059 ± 0.33.

As for MPCHAFAKMFVQSEFSGSVC, the amyloid nucleation score worked out at 0.498 ± 0.97.

For the substance FIITWILTKNMKLGEVYSIS, the amyloid nucleation score was -0.132 ± 0.72.

FRGSRELNMSSQGVGACLIR: the amyloid nucleation score is -0.399 ± 0.88.

In turn, GEIEHHLRYVQCYFRRAVRL registered an amyloid nucleation score of 0.319 ± 0.33.

Take FNVCLSKESVNLGRD: the amyloid nucleation score worked out at 0.486 ± 0.39.

For the substance MYYDMLSCFGEVKRS, the amyloid nucleation score is -0.183 ± 0.79.

The substance RNTFHFNNMALPVLQT yielded an amyloid nucleation score of -1.23 ± 0.77.

For DSLWLRYVFMRTVLLMVHVR, the amyloid nucleation score entry is “inactive”.

The substance SSFRLQALPVEFHGVNYHLA gave an amyloid nucleation score of 0.182 ± 0.92.

DWFAECVFLRRTLESY yielded an amyloid nucleation score of -0.601 ± 0.4.

DEGRDLILISLAHRTSRIDP gave an amyloid nucleation score of 1.29 ± 0.26.

Regarding RRRPGPLPRCAF, the amyloid nucleation score was determined as 1.96 ± 0.18.

For YRLVP, the amyloid nucleation score was -0.186 ± 0.46.

With CLTGGYPNRKLNLTMMWCHW, the amyloid nucleation score entry was “inactive”.

With IFTRW, the amyloid nucleation score is -0.741 ± 0.49.

Consider LYRDSLKLF, for which the amyloid nucleation score is -0.725 ± 0.49.

Regarding WLKVRNTR, the amyloid nucleation score was -0.178 ± 0.49.

The substance FLYVLDSVSCQ registered an amyloid nucleation score of 0.648 ± 0.69.

SVVIFHHTICLERDAVRQKF gave an amyloid nucleation score of 5.02 ± 0.083.

With DDKSFQ, the amyloid nucleation score is 0.614 ± 0.37.

The substance LHRYNYLVYRSTKCMFGVLI came in with an amyloid nucleation score of 0.222 ± 0.52.

IIIRRISGGFAVPSYAHLHS came in with an amyloid nucleation score of 0.53 ± 0.32.

Substance LCNVEDRPYKKFPTDVASK displayed an amyloid nucleation score of -0.031 ± 0.31.

On to GTTHRDS, for which the amyloid nucleation score is -0.263 ± 0.35.

Regarding ASGVWRQ, the amyloid nucleation score is -0.47 ± 0.65.

Substance IENRFLGVKLIAGCSHGLWS had an amyloid nucleation score of -0.241 ± 0.57.

The substance ILLELVASTVVLPLIT gave an amyloid nucleation score of 0.165 ± 0.43.

With YYSYMNCIMITISLLMLVLQ, the amyloid nucleation score is -0.052 ± 0.21.

In the case of YSPFYYVDI, the amyloid nucleation score is 1.61 ± 0.42.

GILFALSIVRDDYFC returned an amyloid nucleation score of -0.215 ± 0.19.

TLFLKDLSLLAFEFPLNISA came in with an amyloid nucleation score of -0.507 ± 0.37.

Take DSWEYFLP: the amyloid nucleation score was -0.375 ± 0.53.

Take SYSIYALGSRLIVEYSYKWI: the amyloid nucleation score was determined as 0.625 ± 0.39.

Substance LKRMFFSNVLFFGSMIAGNR displayed an amyloid nucleation score of 0.162 ± 0.59.

Consider RVLRVFLGDTLFYCQSGSGL, for which the amyloid nucleation score was found to be 1.84 ± 0.22.

Substance VLQQGTSLTKYV displayed an amyloid nucleation score of 0.509 ± 0.42.

As to LRNVVSYREDFECSWGCHRG, the amyloid nucleation score came to 0.724 ± 0.32.

In the case of PTWSWWGSWHLGSMPGDNRR, the amyloid nucleation score worked out at 0.237 ± 0.78.

Turning to ALKWSTLLTLFLGYSHIVSM, the amyloid nucleation score came to 1.46 ± 0.38.

As for FSVAGSE, the amyloid nucleation score entry is “inactive”.

Take YHTNTGDDPSCPRPSTSYSG: the amyloid nucleation score came out at 1.98 ± 0.51.

With SGTRELALGRFHTCCNQRGK, the amyloid nucleation score came to 0.442 ± 0.27.

As to DYFLCKFSTDDPCLVFISWE, the amyloid nucleation score entry was “inactive”.

Turning to KFIVWTFWSYLLTATRM, the amyloid nucleation score came out at 0.157 ± 0.79.

Substance VVNITYFPMVSVRLICGNVP returned an amyloid nucleation score of 6.569 ± 0.063.

For the substance DTGSFFVSVRLSAWVIPPCK, the amyloid nucleation score is -0.063 ± 0.39.

The substance SNQSDLMLLMENMIDYMKSL gave an amyloid nucleation score of 1.32 ± 0.39.

In turn, LLFCQNDSGVVRLMLTVFLR registered an amyloid nucleation score of -0.791 ± 1.2.

SRMWMFFDCIISIINMAEDT returned an amyloid nucleation score of 7.449 ± 0.051.

The substance RQRTIFWLMFWELAMFNCHM gave an amyloid nucleation score of -0.423 ± 0.74.

With LYNFVGSNRIRFASCTQLLC, the amyloid nucleation score is 1.87 ± 0.38.

In turn, CCVNDFPTISPLSPLKRFDR showed an amyloid nucleation score of -0.302 ± 0.54.

Substance HTWNPDYVAECFKEFKRLYK yielded an amyloid nucleation score of 0.393 ± 0.61.

Regarding NFICLHQNNMLISPKGTATR, the amyloid nucleation score was 0.672 ± 0.31.

As to RQLVIIFNDDLGDVGNGNFC, the amyloid nucleation score amounted to 7.61 ± 0.043.

For MASTESNPIKLLKVHLKYTS, the amyloid nucleation score was -0.97 ± 1.4.

In the case of SNIFNMGY, the amyloid nucleation score was found to be 0.187 ± 0.35.

Substance PVVPCYPRLKVCTGRRTAGA had an amyloid nucleation score of 0.684 ± 0.55.

For GESHPFNVFRYCL, the amyloid nucleation score is 1.42 ± 0.14.

With MFCKAVSKERWMV, the amyloid nucleation score was -0.269 ± 0.92.

Take FHGDLA: the amyloid nucleation score is -0.57 ± 0.26.

For the substance SEVCPSSIKR, the amyloid nucleation score is -0.067 ± 0.49.

On to FRNSLSYIVLSCLAMFFNDG, for which the amyloid nucleation score was 0.967 ± 0.32.

Consider NISRAVHTRMGGYMSPTWLK, for which the amyloid nucleation score came to 0.833 ± 0.5.

On to KSMECSFAWLWDSREFIFCH, for which the amyloid nucleation score was -1.67 ± 1.4.

IWVSLDYMKSGNGNFTDSFC returned an amyloid nucleation score of 2.82 ± 0.12.

The substance SRLRLGIRTDLG yielded an amyloid nucleation score of 0.218 ± 0.54.

As for ILRTFVSSCVDVGTYSTTKC, the amyloid nucleation score is -1.52 ± 2.4.

The substance VAGAVNNSWWGLSNVARAKR registered an amyloid nucleation score of 0.082 ± 0.54.

Turning to YAHGGWDLVRRNS, the amyloid nucleation score worked out at 0.232 ± 0.86.

With CDSYELSQTAQRNNSTLRQS, the amyloid nucleation score was -0.359 ± 1.9.

On to ALCLSRARSSG, for which the amyloid nucleation score is -0.152 ± 0.68.

VKLLYVIISYVRVCCRMDQI came in with an amyloid nucleation score of -0.501 ± 0.54.

As to MHHCSFSSLDFTVHK, the amyloid nucleation score is -1.02 ± 2.4.

Regarding IYNLNVISSVCESTRCRQTA, the amyloid nucleation score was found to be 7.08 ± 0.078.

For YSGNSIFLNLRSSCAYCGGD, the amyloid nucleation score stood at 6.35 ± 0.081.

RKFMDYSLKFSWRGVIPVMR had an amyloid nucleation score of -1.83 ± 1.8.

NQDMVNMIHETFIVLARVVI returned an amyloid nucleation score of -0.059 ± 0.38.

Turning to DTLIFVLREVTLLNDAGVSS, the amyloid nucleation score was 0.646 ± 0.42.

In turn, PGMNSRCCA displayed an amyloid nucleation score of 0.48 ± 0.72.

Turning to RTVVQKKPVRCNMICNYWVF, the amyloid nucleation score is 4.82 ± 0.064.

On to EVIAGCGLRCRSSNHIVREM, for which the amyloid nucleation score worked out at 0.104 ± 0.36.

SMGLKPGEVCLNKDFDSH returned an amyloid nucleation score of 0.036 ± 1.2.

On to GICELQRPTYVTLVEVFMVD, for which the amyloid nucleation score was -0.49 ± 0.41.

On to LFSSYSLEE, for which the amyloid nucleation score turned out to be 1.1 ± 0.77.

The substance WVILMMLCILRGRELSVAYW returned an amyloid nucleation score of -0.446 ± 0.99.

In the case of MWYNCFMTNPGFQLSPMGSI, the amyloid nucleation score came to 0.851 ± 0.55.

Substance ESTLNRVRVTALETVQQCLS displayed an amyloid nucleation score of 0.275 ± 1.2.

For the substance NSRSVVLMSVDFIILGYDKM, the amyloid nucleation score came out at 3.56 ± 0.17.

VLMMV returned an amyloid nucleation score of 1.28 ± 0.48.

In turn, VPWSFLQRSWLDIWECPYKL displayed an amyloid nucleation score of -0.276 ± 0.41.

For YSWLVYNHNSDPGGSVCWSC, the amyloid nucleation score came out at 5.61 ± 0.065.

Turning to RIGFPVRYEEFALRFIYILE, the amyloid nucleation score is -0.261 ± 0.72.

LLHCKVICRRCCVIWSSCSI yielded an amyloid nucleation score of 2.09 ± 0.46.

Take YVLFFSPCT: the amyloid nucleation score result is “inactive”.

In turn, SHYTHVFLM had an amyloid nucleation score of -0.468 ± 0.93.

Take SKCIWDFGYVSPWAISS: the amyloid nucleation score entry is “inactive”.

On to FKRRKSFAHCRFAGVVRRWW, for which the amyloid nucleation score was -0.581 ± 1.2.

RSTYVCKIRVRMIYVDVKCS displayed an amyloid nucleation score of 0.596 ± 0.46.

On to EDLRLGSSYYEMANEASYGT, for which the amyloid nucleation score was 1.82 ± 0.11.

TNYQRIQHA registered an amyloid nucleation score of -0.903 ± 2.4.

VRNVG yielded an amyloid nucleation score of -0.14 ± 0.59.

SIPYSRRVF displayed an amyloid nucleation score of 0.103 ± 0.41.

For the substance GMSALYSGDVL, the amyloid nucleation score was -0.118 ± 0.57.

On to GWGLA, for which the amyloid nucleation score entry is “inactive”.

Turning to EIYGKCLNPIGL, the amyloid nucleation score turned out to be 0.53 ± 0.52.

GSSLTPCFEWMIIRCVEEDG registered an amyloid nucleation score of 1.05 ± 0.79.

CSNDMGEQWWEDRYCTGKWD: the amyloid nucleation score is -0.204 ± 0.38.

YSVLVPIPLSCCISDVLYCT came in with an amyloid nucleation score of 5.61 ± 0.064.

QKAAVEQGLSRFGEGVTP yielded an amyloid nucleation score of 0.886 ± 0.66.
